In patent publication US11202837B2, “Biological materials and uses thereof” (Antikor Biopharma Limited, priority 2014, dated 2021):
Like-named read-outs stand apart in the source and are kept apart here.

B1: scFv (TCT)-Acetate DAR 15 (conjugate)
scFv: SGSGGSGQVQLVQSGAEVKKPGESLKISCKGSGYSFTSYWIAWVRQMPGKGLEYMGLIYPGDSDTKYSPSFQGQVTISVDKSVSTAYLQWSSLKPSDSAVYFCARHDVGYCSSSNCAAWPEYFQHWGQGTLVTVSSGGGGSGGGGSGGGGSQSVLTQPPSVSAAPGQKVTISCSGSSSNIGNNYVSWYQQLPGTAPKLLIYGHTNRPAGVPDRFSGSKSGTSASLAISGFRSEDEADYYCAAWDDSLSGWVFGGGTKLTVLMASMTGGQQMG
B2: scFv (TCT)-MMAF-C5 DAR 6.8 (conjugate)
scFv: B1 scFv
B3: scFv (TCT)-MMAF-C5 1 DAR 5.6 (conjugate)
scFv: B1 scFv
B4: scFv (TCT)-MMAF-C5, DAR 6.6 (conjugate)
scFv: B1 scFv
B5: scFv (TCT1067)-Acetate DAR 16 (conjugate)
scFv: SGSGGSGQVQLVQSGAEVKKPGESLKISCKGSGYSFTSYWIAWVRQMPGKGLEYMGLIYPGDSDTKYSPSFQGQVTISVDKSVSTAYLQWSSLKPSDSAVYFCARHDVGYCTDRTCAAWPEWLGVWGQGTLVTVSSGGGGSGGGGSGGGGSQSVLTQPPSVSAAPGQKVTISCSGSSSNIGNNYVSWYQQLPGTAPKLLIYGHTNRPAGVPDRFSGSKSGTSASLAISGFRSEDEADYYCASWDYTLSGWVFGGGTKLTVLMASMTGGQQMG
B6: scFv (TCT1067)-MMAF-C5, DAR 6.4 (conjugate)
scFv: B5 scFv
B7: scFv (TCT1067)-DM1-dPEG12 DAR 7 (conjugate)
scFv: B5 scFv
B8: scFv (TCT1067)-Auristatin F-C5, DAR 2.7 (conjugate)
scFv: B5 scFv
B9: scFv (TCT1067)-P5-C5 DAR 10.9 (conjugate)
scFv: B5 scFv
B10: scFv (TCT1067)-DM1-dPEG12 DAR 8 (conjugate)
scFv: B5 scFv

How the values were obtained:
HER2 = HER2 (Homo sapiens, UniProt P04626); assay: Biacore SPR binding to immobilised HER2; conditions: immobilised HER2
Protocol: The binding affinity against immobilised HER2 target antigen was determined by Biacore SPR compared to the unmodified scFv on a Biacore T200. A standard amine-coupling method was used to prepare all Biacore surfaces (CM5 or CM3), as follows. Flow cells were activated individually by injecting a freshly mixed solution of 0.2M EDC in 0.05 M NHS at 30 μl/min. […] Excess NHS ester was deactivated using a 1 M ethanolamine solution. To measure the kinetics of the antibody and conjugate on the HER2 chip, a […] serial dilution (typically at 5, 2.5, 1.25, 0.6 μg/ml or lower for free antibody and 20, 10, 5, 2.5 μg/ml for the conjugates), was injected for 160 s at 30 μl/min, allowing a 900-s dissociation phase. The dissociation time was extended to 3600 s for the highest concentration. Surfaces were regenerated with 45 s injection of MgCl2 8M.
To evaluate binding ability, manual runs were performed at 30 μl/min with a 60 s injection of the desired compound followed by 60 s waiting time and a 45 s of regeneration at 10 μl/min using MgCl2 8M. All data was analysed using the software, BIAEvaluation.

[1] = Aggregation by HPLC size-exclusion chromatography; assay type: physicochemical; conditions: for aggregation by HPLC-SEC (in words): purified or analysed conjugate vs unconjugated antibody
Protocol: Aggregation can be tested by analytical size-exclusion HPLC measuring the percentage of high molecular weight material compared to the conjugate eluting at a retention time characteristic of a monomeric conjugate.
Typically, 20 μg of protein was injected for analytical runs and 300 μg for semi-preparative runs.

BT474 cells = assay: Cell killing assay (MTS), BT474 cells; assay type: cell-based, human; conditions: BT474 Cells (HER2++), 96 hours; for IC50: read-out: IC50
Protocol: (§1) The cells were recovered by centrifugation (2 min, 2000 rpm), the supernatant was discarded, and the cells were resuspended in complete McCoy's 5A (5 ml). The cells were then counted using a haemocytometer and diluted accordingly. They were plated at 5000 cells/well (200 μl) using attachment factor and incubated overnight at 37° C., 5% CO2 in a humidified atmosphere. U87 is a non-HER2 expressing glioblastoma cell line [Zitron I M et al (2013) BMC Cancer 13:83] and was grown in a similar way, plated at 1000 cells/well (using DMEM media). BT474 is a HER2 expressing breast cancer cell line [Brockhoff G et al (2007) Cell Prolif 40:488-507] and was grown in a similar way, plated at 7500 cells/well (using RPMI media). NCI-N87 is a HER2 expressing gastric cancer cell line [Yamashita-Kashima Y et al (2013) Oncol. Rep 30:1087-93] and was grown in a similar way, plated at 7500 cells/well (using RPMI media).
(§2) The cells were exposed to the various ADCs diluted in complete media for 96 hours at 37° C., 5% CO2 in a humidified atmosphere. Cell viability was measured using the Promega Aqueous Cell-titre-96™ aqueous one solution cell proliferation kit (MTS reagent) according to manufacturer's instructions. Briefly, the media was removed and 100 μl of complete phenol red free media, pre-combined with MTS reagent, was added to the cells (20 μl of reagent per 100 μl of media). The plates were read on an ELISA plate reader at 490 nm after a 2 hr incubation in the dark (5% CO2, 37° C.).
(§3) The data (absorption units) were converted to % cell survival by using the untreated controls as the 100% cell survival and the Triton X-100 controls as the 100% cell death. The average absorption value for the latter was subtracted from all the rest of the data in order to get a suitable baseline. The averages were converted to survival and standard error values were obtained for each n value (as a % cell survival). […] Experiments were repeated at least 3 times for each compound tested and a set or an average of the data was plotted and fitted to obtain a dose-response curve.

SKBr3 cells = assay: Cell killing assay (MTS), SKBr3 cells; assay type: cell-based, human; conditions: SKBr3 Cells (HER2+++), 96 hours; for IC50: read-out: IC50
Protocol: (§4) SKBr3, human breast cancer cell line, high HER2 expression levels, up to 1,000,000 receptors per cell [Lazar G A, et al Proc Natl Acad Sci USA. […] When confluency was 70-80%, cells were washed with PBS (2×10 ml) and incubated with trypsin for 5-7 min. Complete media was added and the cells were resuspended by pipetting. The cells were recovered by centrifugation (2 min, 2000 rpm), the supernatant was discarded, and the cells were resuspended in complete DMEM (5 ml). The cells were then counted using a haemocytometer and diluted accordingly. They were plated at 4500 cells/well (200 μl) using attachment factor and incubated overnight at 37° C., 5% CO2 in a humidified atmosphere. U87 is a non-HER2 expressing glioblastoma cell line and was grown in a similar way, plated at 1000 cells/well.
as §2, with “The cells were exposed to the various ADCs diluted in complete media for 96 hours at 37° C., 5% CO2 in a humidified atmosphere.” left out, “kit” for “kit (MTS reagent)”
as §3, with “dose response” for “dose-response”
as §1
as §2, with “The cells were exposed to the various ADCs diluted in complete media for 96 hours at 37° C., 5% CO2 in a humidified atmosphere.” left out
(§5) The data (absorption units) were converted to % cell survival by using the untreated controls as the 100% cell survival and the Triton X-100 controls as the 100% cell death. The average absorption value for the latter was subtracted from all the rest of the data in order to get a suitable baseline. The averages were converted to survival and standard error values were obtained for each n value (as a % cell survival).

U87 cells = assay: Cell killing assay (MTS), U87 cells; assay type: cell-based; conditions: U87 Cells (HER2−), 96 hours, Table 46
Protocol: as §4
as §2, with “kit” for “kit (MTS reagent)”
as §3, with “dose response” for “dose-response”
as §1, §2, §5

NCI-N87 cells = assay: Cell killing assay (MTS), NCI-N87 cells; assay type: cell-based, human; conditions: NCI-N874 Cells (HER2++), 96 hours, Table 49
Protocol: as §1, §2, §3

Molecule | association rate (HER2) [M⁻¹ s⁻¹] | dissociation rate (HER2) [s⁻¹] | aggregation by HPLC-SEC (in words) [1] | aggregation by HPLC-SEC [1] | other results
B1 | 5.93e+06 | 0.0171 | no aggregation | – | –
B2 | 1.2e+06 | 0.0042 | no aggregation | 17% | –
B3 | 770000 | 0.0042 | no aggregation | – | –
B4 | – | – | – | – | IC50 μg/ml (BT474 cells; Table 46): 0.2 µg/mL; IC50 (BT474 cells; Table 46): 7.14 pM; IC50 μg/ml (SKBr3 cells; Table 46): 0.087 µg/mL; IC50 (SKBr3 cells; Table 46): 3.1 pM; IC50 μg/ml (U87 cells): >5 µg/mL
B5 | 3.63e+06 | 7.64e-05 | no aggregation | – | –
B6 | – | – | – | – | IC50 μg/ml (BT474 cells; Table 46): 0.008 µg/mL; IC50 (BT474 cells; Table 46): 286 pM; IC50 μg/ml (SKBr3 cells; Table 46): 0.007 µg/mL; IC50 (SKBr3 cells; Table 46): 250 pM; IC50 μg/ml (U87 cells): >5 µg/mL
B7 | 19500 | 2.7e-05 | – | 1% aggregates | –
B8 | – | – | – | – | IC50 μg/ml (NCI-N87 cells): 0.00087 µg/mL; IC50 (NCI-N87 cells): 31.1 pM; IC50 μg/ml (BT474 cells; Table 49): 0.00115 µg/mL; IC50 (BT474 cells; Table 49): 39.2 pM; IC50 μg/ml (SKBr3 cells; Table 49): 0.00089 µg/mL; IC50 (SKBr3 cells; Table 49): 31.7 pM
B9 | – | 7.13e-05 | no aggregation | – | –
B10 | 13200 | 3.28e-05 | – | 4% aggregates | –
